Assay results as given in IntAct's records for PubMed 19233177.

B1: Polycomb complex protein BMI-1 (Homo sapiens), P35226 (parent)
chain: MHRTTRIKITELNPHLMCVLCGGYFIDATTIIECLHSFCKTCIVRYLETSKYCPICDVQVHKTRPLLNIRSDKTLQDIVYKLVPGLFKNEMKRRRDFYAAHPSADAANGSNEDRGEVADEDKRIITDDEIISLSIEFFDQNRLDRKVNKDKEKSKEEVNDKRYLRCPAAMTVMHLRKFLRSKMDIPNTFQIDVMYEEEPLKDYYTLMDIAYIYTWRRNGPLPLKYRVRPTCKRMKISHQRDGLTNAGELESDSGSDKANSPAGGIPSTSSCLPSPSTPVQSPHPQFPHISSTMNGTSNSPSGNHQSSFANRPRKSSVNGSSATSSG

Variants of: B1
Details: with ubc_human UBC

effect of a mutation on the interaction | Variant
increasing interaction | C18Y
